US20260184794A1 (MOMENTA PHARMACEUTICALS, published 2026)

B1: 79E3E3 (antibody, V domains shown)
VH: QIQLVQSGPEVKKPGESVKISCKASGYTFTDYAMNWVKQAPGNGLKWMGWINTQTGKPTYADDFKQRFVFSLETSARTTYLQINNLNIEDTATYFCTRLGTGNTKGFAYWGQGTLVTVSS
VL: DILINQSPASLTVSAGERVTMSCKSSQSLLYSENNQDYLAWYQQKPGQFPKLLIYGASNRHTGVPDRFTGSGSGTDFTLTISSVQAEDLADYYCEQTYRYPFTFGSGTKLEIK
notes: Rat hybridoma antibody; also called Wild Type
B2: 1994-01-C7 variant 54 (antibody, V domains shown)
VH: QVQLVQSGAEVKKPGASVKVSCKASGYTFTSYGISWVRQAPGQGLEWMGWISAYNANTNYAQKLQGRVTMTTDTSTSTAYMELRSLRSDDTAAYYCARVTGITGTTIGPWGQGTMVTVSS
VL: DIQMTQSPSSLSASVGDRVTITCRASQSISSYLNWYQQKPGKAPKLLIYDASSLESGVPSRFSGSGSGTEFTLTISSLQPDDFAVYYCQQYNNWPQTFGQGTKVEIK
B3: 1994-01-C7 (antibody, V domains shown)
VH: QVQLVQSGAEVKKPGASVKVSCKASGYTFTSYGISWVRQAPGQGLEWMGWISAYNGNTNYAQKLQGRVTMTTDTSTSTAYMELRSLRSDDTAAYYCARVTGITGTTIDPWGQGTMVTVSS
VL: DIQMTQSPSSLSASVGDRVTITCRASQSISSYLNWYQQKPGKAPKLLIYDASSLESGVPSRFSGSGSGTEFTLTISSLQPDDFAVYYCQQYNNWPQTFGQGTKVEIK
notes: Fully human, from phage display (scFv converted to IgG); also called 1994-01-C7 (#9); 1994-01-C07
B4: 1994-01-C7 variant 58 (antibody, V domains shown)
VH: QVQLVQSGAEVKKPGASVKVSCKASGYTFTSYGISWVRQAPGQGLEWMGWISAYNANVNYAQKLQGRVTMTTDTSTSTAYMELRSLRSDDTAAYYCARVTGITGTTIGPWGQGTMVTVSS
VL: DIQMTQSPSSLSASVGDRVTITCRASQSISSYLNWYQQKPGKAPKLLIYDASSLESGVPSRFSGSGSGTEFTLTISSLQPDDFAVYYCQQYNNWPQTFGQGTKVEIK
B5: 1994-01-C7 variant 60 (antibody, V domains shown)
VH: QVQLVQSGAEVKKPGASVKVSCKASGYTFTSYGISWVRQAPGQGLEWMGWISAYNSNTNYAQKLQGRVTMTTDTSTSTAYMELRSLRSDDTAAYYCARVTGITGTTIGPWGQGTMVTVSS
VL: DIQMTQSPSSLSASVGDRVTITCRASQSISSYLNWYQQKPGKAPKLLIYDASSLESGVPSRFSGSGSGTEFTLTISSLQPDDFAVYYCQQYNNWPQTFGQGTKVEIK
B6: 16E10 (antibody, V domains shown)
VH: QSLEESGGDLVKPGASLTLTCRVSGFSFSSSYYMCWVRQAPGKGLEWIACIGTTRGSTYYATWAKGRFTISKISSTTVTLQMTSLTDADTATYFCARDATGYRINTIGLYFNLWGPGTLVTVSS
VL: ELTQTPSSVEAAVGGTPTIKCQASQTIYSYLSWYQQKPGQPPKLLIYEASKLASGVPSRFSGSGSGTDYTLTISDLECADAATYYCQSYHGTASTEYNTFGGGTEVVVK

Tests used:
[1] = target: T1, α11β1 on human pulmonary myofibroblasts (human, UniProt Q9UKX5 23-1188; P05556 21-798); assay: flow cytometry on TGFβ1-treated human pulmonary fibroblasts (myofibroblasts)
T1 construct: whole, on cells; The cells are not transfected; also called HPF/MF
Method: (§1) Human Pulmonary Fibroblasts (ScienCell) were cultured in complete Fibroblast Growth Medium (ScienCell) until 80% confluent in T-150 flasks. Cells were washed and harvested using Accutase. Cells were seeded into T-150 flasks at 7,500 cells/cm² in complete FGF and cultured for 72 hours. Cells were then washed and starved in serum reduced medium for 24 hours. After starvation, cells were treated with TGFβ1 (R&D Systems) for 72 hours. Cells were harvested using Accutase and seeded in 96-well conical bottom plates. Cells were blocked with Heat Inactived Fetal Bovine Serum (Gibco) for 30 minutes at 4° C. Cells were then incubated with anti-al I antibodies at the doses described in each figure for 30 minutes at 4° C. A human anti-al I antibody (Creative BioLabs) was included as a positive control as well as the appropriate IgG isotype negative controls. Cells were washed twice and incubated with PE conjugated secondary antibodies specific to the IgG class of the anti-α11 antibodies being tested for 30 minutes at 4° C. Cells were washed twice and fixed in 1% PF A for 30 minutes. Cells were acquired on a FACS Verse […]. Data were analyzed by gating on single cells and determining the geometric Mean Fluorescence Intensity (gMFI) in the PE channel for each sample.
Target sequence in this assay (P05556 21-798, one chain of several): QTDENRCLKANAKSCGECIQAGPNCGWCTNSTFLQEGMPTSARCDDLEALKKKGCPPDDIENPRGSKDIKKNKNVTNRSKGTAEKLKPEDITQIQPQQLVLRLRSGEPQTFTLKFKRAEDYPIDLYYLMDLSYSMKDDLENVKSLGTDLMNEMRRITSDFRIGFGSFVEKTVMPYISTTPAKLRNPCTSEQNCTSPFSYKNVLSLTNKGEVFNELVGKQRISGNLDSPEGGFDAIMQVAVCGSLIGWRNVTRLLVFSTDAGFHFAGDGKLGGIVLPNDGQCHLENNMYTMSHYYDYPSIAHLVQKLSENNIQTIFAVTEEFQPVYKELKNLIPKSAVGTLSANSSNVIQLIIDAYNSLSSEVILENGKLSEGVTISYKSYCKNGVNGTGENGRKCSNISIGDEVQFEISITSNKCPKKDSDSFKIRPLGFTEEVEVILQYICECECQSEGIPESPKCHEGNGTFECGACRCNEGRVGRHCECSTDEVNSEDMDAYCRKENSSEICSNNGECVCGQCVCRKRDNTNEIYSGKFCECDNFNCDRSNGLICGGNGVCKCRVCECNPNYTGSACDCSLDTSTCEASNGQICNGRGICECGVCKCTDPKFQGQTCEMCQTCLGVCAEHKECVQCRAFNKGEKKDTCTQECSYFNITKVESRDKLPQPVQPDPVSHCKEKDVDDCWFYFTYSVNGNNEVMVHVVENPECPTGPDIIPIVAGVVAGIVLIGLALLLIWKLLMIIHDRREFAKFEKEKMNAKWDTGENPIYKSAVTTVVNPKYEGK

[2] = target: T2, human α11 expressed on CHO-K1 cells (human, UniProt Q9UKX5 23-1188); assay: cell-based or functional assay
T2 sequence (Q9UKX5 whole entry, looked up): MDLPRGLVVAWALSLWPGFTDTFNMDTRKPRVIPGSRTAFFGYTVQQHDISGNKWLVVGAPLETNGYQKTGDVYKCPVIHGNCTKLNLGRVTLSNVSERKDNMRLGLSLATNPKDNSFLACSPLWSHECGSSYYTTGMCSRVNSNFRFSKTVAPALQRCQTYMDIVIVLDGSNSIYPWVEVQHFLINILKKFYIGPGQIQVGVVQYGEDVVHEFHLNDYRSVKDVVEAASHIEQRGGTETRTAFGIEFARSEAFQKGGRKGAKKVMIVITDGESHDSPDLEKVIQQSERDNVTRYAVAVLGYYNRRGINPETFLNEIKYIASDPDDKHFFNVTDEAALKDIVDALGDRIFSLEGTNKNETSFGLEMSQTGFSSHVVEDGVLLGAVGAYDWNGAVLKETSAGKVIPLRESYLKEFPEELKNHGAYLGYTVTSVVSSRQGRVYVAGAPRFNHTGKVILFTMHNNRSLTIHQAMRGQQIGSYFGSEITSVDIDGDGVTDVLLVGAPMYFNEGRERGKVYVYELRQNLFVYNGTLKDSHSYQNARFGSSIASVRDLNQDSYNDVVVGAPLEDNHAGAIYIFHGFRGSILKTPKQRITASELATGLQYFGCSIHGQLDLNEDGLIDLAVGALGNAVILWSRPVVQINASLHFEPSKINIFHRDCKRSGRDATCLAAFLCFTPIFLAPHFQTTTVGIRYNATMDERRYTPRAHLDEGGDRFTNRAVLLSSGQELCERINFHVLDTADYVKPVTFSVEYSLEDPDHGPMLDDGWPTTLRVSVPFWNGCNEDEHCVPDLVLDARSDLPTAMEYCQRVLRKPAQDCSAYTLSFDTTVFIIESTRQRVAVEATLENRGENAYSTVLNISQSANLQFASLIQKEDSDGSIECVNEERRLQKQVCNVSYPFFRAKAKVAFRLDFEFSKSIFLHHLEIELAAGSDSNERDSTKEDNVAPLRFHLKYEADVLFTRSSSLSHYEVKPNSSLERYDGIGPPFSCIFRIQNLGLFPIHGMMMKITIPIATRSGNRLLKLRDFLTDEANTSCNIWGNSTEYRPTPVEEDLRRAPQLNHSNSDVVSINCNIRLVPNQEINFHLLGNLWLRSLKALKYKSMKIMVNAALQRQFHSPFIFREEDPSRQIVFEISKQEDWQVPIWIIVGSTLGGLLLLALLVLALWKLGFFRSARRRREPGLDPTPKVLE

[3] = target: T3, recombinant human α11β1 (human, UniProt Q9UKX5 23-1141; P05556 21-728, limits assumed); assay: SPR (Biacore T200), HIS-tagged human α11β1 captured by anti-HIS, antibody injected, single cycle kinetics, 1:1 model
T3 construct: HIS-tagged heterodimer captured by anti-HIS antibody in SPR; also called HIS-tagged human α11β1; soluble human α11β1
T3 sequence (P05556 21-728 limits assumed, chain 2 of 2, one chain of several): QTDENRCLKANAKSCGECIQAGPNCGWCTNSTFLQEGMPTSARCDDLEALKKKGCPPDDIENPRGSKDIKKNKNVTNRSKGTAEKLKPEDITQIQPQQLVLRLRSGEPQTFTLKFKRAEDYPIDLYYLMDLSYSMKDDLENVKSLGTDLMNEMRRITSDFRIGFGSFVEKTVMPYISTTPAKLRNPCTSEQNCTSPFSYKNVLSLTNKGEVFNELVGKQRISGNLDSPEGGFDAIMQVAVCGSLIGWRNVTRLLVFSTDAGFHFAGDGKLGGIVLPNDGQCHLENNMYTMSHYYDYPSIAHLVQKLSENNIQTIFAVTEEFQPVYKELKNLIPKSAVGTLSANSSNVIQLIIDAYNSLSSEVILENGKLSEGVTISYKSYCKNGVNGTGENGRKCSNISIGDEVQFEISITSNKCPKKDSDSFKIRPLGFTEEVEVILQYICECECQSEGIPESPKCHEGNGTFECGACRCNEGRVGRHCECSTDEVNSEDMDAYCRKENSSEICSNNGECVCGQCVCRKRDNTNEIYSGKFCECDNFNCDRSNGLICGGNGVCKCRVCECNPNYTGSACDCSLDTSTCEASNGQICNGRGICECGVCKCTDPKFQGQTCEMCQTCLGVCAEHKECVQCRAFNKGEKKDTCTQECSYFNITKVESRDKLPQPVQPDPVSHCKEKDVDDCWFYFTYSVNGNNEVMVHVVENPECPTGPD
Method: The affinity of antibodies for human α11β1 was measured by surface plasm on resonance assay (SPR). Affinity was measured at pH 7.6 and 25° C. with a Biacore T200 instrument. Anti-HIS antibody was immobilized on the SPR sensor surface using EDC/NHS covalent attachment. HIS-tagged human α11β1 was captured on the sensor surface and a single cycle kinetics assay was used. Increasing concentrations of test antibody were injected in series over the sensor-bound α11β1. Dissociation was monitored for 1000 seconds. A sensor surface with only anti-HIS antibody and a series of blank injections were used to double-reference subtract the data. A 1:1 Langmuir model was fit to the data to estimate the kinetic association and dissociation constants. The affinity (equilibrium dissociation constant) of the interaction was calculated by dividing the kinetic dissociation constant by the kinetic association constant. Between injection cycles α11β1 and bound antibody were removed with an injection of 10 mM glycine at pH 1.5.

[4] = target: T2, human α11 expressed on CHO-K1 cells; assay: flow cytometry on CHO cells expressing human α11 (CHO-α11β1 binding)
Method: (§2) 200,000 cells (wild-type CHO-K1 cells or CHO-K1 cells expressing human α11) were incubated with each antibody at desired concentrations in FACS buffer for 30 min at 4° C. Then, the cells were washed with FACS buffer and incubated with secondary antibody at 1:100 dilution for 30 minutes at 4° C. Cells were then washed and fixed with 1% PF A in PBS for 20 minutes at room temperature; washed again and read on a cytometer in FACS buffer.

[5] = target: T1, α11β1 on human pulmonary myofibroblasts; assay: flow cytometry on human pulmonary myofibroblasts (title: Myofibroblast Binding); MFI against Log [µg/ml]
Method: as §1
Target sequence in this assay (P05556 21-798, chain 2 of 2, one chain of several): as the sequence (P05556 21-798, one chain of several) above

[6] = target: T2, human α11 expressed on CHO-K1 cells; assay: cell-based or functional assay; remark: listed apart in the source
[7] = target: T2, human α11 expressed on CHO-K1 cells; assay: flow cytometry on CHO-K1 cells expressing human α11 (title: CHO-hu α11 Binding); MFI against Log [µg/ml]
Method: as §2

| Binder | EC50 [1] | CHO-hu α11 adhesion inhibition (IC50) [2] | Kd [3] | EC50 [4] | EC50 (read off the curve) [5] | IC50 (read off the curve), inhibition of cell adhesion to type I collagen [6] | EC50 (read off the curve) [7] |
| --- | --- | --- | --- | --- | --- | --- | --- |
| B1 | 3.35 nM | 9.4 nM | 1.3 nM | 3.4 nM | – | – | – |
| B2 | – | – | – | – | ~0.4 µg/mL | ~0.6 µg/mL | – |
| B3 | 3.5 nM | 3.3 nM | 0.24 nM | 3.5 nM | ~0.5 µg/mL | ~0.5 µg/mL | ~0.4 µg/mL |
| B4 | – | – | – | – | ~0.4 µg/mL | ~0.5 µg/mL | – |
| B5 | – | – | – | – | ~0.6 µg/mL | ~0.6 µg/mL | ~0.8 µg/mL |
| B6 | 0.35 nM | 0.39 nM | 0.048 nM | 0.3 nM | – | – | – |
